Results: the RNAGym collection of RNA variant scans (doi:10.1073/pnas.2313332121)

B1: TPR t1 (parent)
chain: GACCAAUCUGCCCUCAGAGCUCGAGAACAUCUUCGGAUGCAGAGGAGGCAGGCUUCGGUGGCGCGAUAGCGCCAACGUCCUCAACCUCCAAUGCAUCCCACCACAUGAUGAUGCCUGAAGAGCCUUGGUUUUUUG

Variants of: B1
Experiment: polymerase ribozyme fitness, log enrichment relative to wild type (log ratio); higher = more active; in vitro selection for triplet polymerase activity
Outline: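 Genotype fitness is the logarithm of its enrichment divided by wild-type enrichment, using inverse-variance-weighted averages of replicates. That logarithm is base 2. Enrichment was measured by Illumina sequencing of input and output libraries from one triplicate in vitro selection round, with frozen incubation at −7 °C, on PCR-built, transcribed mutant libraries of each subunit of a heterodimeric triplet polymerase ribozyme, retaining genotypes with ≥10 input reads and ≥1 read per output.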

Row | Variant | polymerase ribozyme fitness (log ratio)
1 | GACCAAUCUGCCCUCAGAGCUCGAGAACAUCUUCGGAUGCAGAGGAGGCAUGCUUCGGUGACGCGAUAGCGCCAACGUCCUCAACCUCCAAUGCAUCCCACCACAUGAUGAUGCCUGAAGAGCCUUGGUUUUUUG [G51U G61A] | -3.03
2 | GACCAAUCUGCCCUCAGAGCUCGAGAACAUCUUCGGAUGCAGAGGAGGCAUGCUUCGGUGGCGCGAUAGCGCCAACGUCCUCAACCCCCAAUGCAUCCCACCACAUGAUGAUGCCUGAAGAGACUUGGUUUUUUG [G51U U87C C123A] | -2.59
3 | GACCAAUCUGCCCUCAGAGCUCGAGAACAUCUUCGGAUGCAGAGGAGGCAUGCUUCGGUGGCGCGAAAGCGCCAUCGUCCUCAACCUACAAUGCAUCCCACCACAAGAUGACGCCUGAAGAGCCUUGGUUUUUUG [G51U U67A A75U C88A U106A U112C] | -6.98
4 | GACCAAUCUGCCCUCAGAGCUCGAGAACAUCUUCGGAUGCAGAGGAGGCAUGCUUCGGUGGCGCGAUAGCGCCAACGUCCUGUACCACCAAUGCAUCCCACCACAUGAUGAUGCCUGAAGAGCCUUGGUUUUUUG [G51U C82G A83U U87A] | -1.52
5 | GACCAAUCUGCCCUCAGAGCUCGAGAACAUCUUCGGAUGCAGAGGAGGCAUGCUUCGGUGGCGCGAUAGUGCCAACGUCCUCAACCUCCAAUGCAUCCCACCACAUGAUGAUGCCUGAAGAGCCUUGGUUUUUUG [G51U C70U] | -3.37
6 | GACCAAUCUGCCCUCAGAGCUCGAGAACAUCUUCGGAUGCAGAGGAGGCAUGCUUCGGUGGCGCGAUAGGGCCAACGUCCUCAACCUCCAAUGCAUCCCACCACAUGAUGAUGCCUGAAGAGCCUUGGUUUUUUG [G51U C70G] | -5.67
7 | GACCAAUCUGCCCUCAGAGCUCGAGAACAUCUUCGGAUGCAGAGGAGGCACGCUUCGGUGGUGCGAUAGCGCCAACGUCCUCAACCUCCAAUGCAUCCCACCACAUGAUGAUGCCUGAAGAGCCUUGGUUUUUUG [G51C C62U] | -3.45
8 | GACCAAUCUGCCCUCAGAGCUCGAGAACAUCUUCGGAUGCAGAGGAGGCAUGCUUAGGUGGCGCGAUAUCGCCAACGUCCUCAACCUCCAAUGCAUCCCACCACACGAUGAUGCCUGAAGAGCCUUGGUUUUUUG [G51U C56A G69U U106C] | -1.79
9 | GACCAAUCUGCCCUCAGAGCUCGAGAACAUCUUCGGAUGCAGAGGAGGCAUGCUACGGUGGCGCGAUAGCGCUAACGGCCUCAACCUCCAAUGCAUCUCACCACUUGAUGAUGCCUGAAGAGCCUUGGUUUUUUG [G51U U55A C73U U78G C98U A105U] | -7.15
10 | GACCAAUCUGCCCUCAGAGCUCGAGAACAUCUUCGGAUGCAGAGGAGGCACGCUUCGGAGGCGCGAUAGCGCCAACGUCCUUAACCUCCAAUGCAUCUCACCACAUGAUGAUGCCUGAAGAGCCUUGGUUUUUUG [G51C U59A C82U C98U] | -5.66
11 | GACCAAUCUGCCCUCAGAGCUCGAGAACAUCUUCGGAUGCAGAGGAGGCACGCUUCAGUGGCGCGAUAGCGCCAACGUCCUCAACCUCCAAUGCAUCCCACCACAUGAUGAUGCCUGAAGAGCCUUGGUUUUUUG [G51C G57A] | -3.2
12 | GACCAAUCUGCCCUCAGAGCUCGAGAACAUCUUCGGAUGCAGAGGAGGCAUGCUUCGGUGCCGCGAUAGCGCCAACGUCCUCAACCCCCAAUGCAUCCCACCACAUGAUGAUGCCUGAAGAGACUUGGUUUUUUG [G51U G61C U87C C123A] | -4.21
13 | GACCAAUCUGCCCUCAGAGCUCGAGAACAUCUUCGGAUGCAGAGGAGGCACGCUUCGGUGGCGCGAUAGCGCCAACGUCCUCAACCUCCAAUGCAUCCCACCACAUGAUGAUGCCUGAAGAGCCUUGGAUUUUUG [G51C U129A] | -5.21
14 | GACCAAUCUGCCCUCAGAGCUCGAGAACAUCUUCGGAUGCAGAGGAGGCAUGCUUCGGUGGCGGGAUAGCGCCAACGUCCUCCACCUCCAAUGCAUCCCACCACAUGAUGAUUCCUGAAGAGGCUUAGUUUUUUG [G51U C64G A83C G113U C123G G127A] | -6.21
15 | GACCAAUCUGCCCUCAGAGCUCGAGAACAUCUUCGGAUGCAGAGGAGGCAUGCUUCGGUGGCGCGAUAGCGCCAACGUCCUCAACCUCCAAUGCAUCCCACCAUAUGAUGAUGCCUGAAGAGCCUUGGUUUUUUG [G51U C104U] | -3.67
16 | GACCAAUCUGCCCUCAGAGCUCGAGAACAUCUUCGGAUGCAGAGGAGGCAUGCUUCGGUGGCGCGAUAGCUCCAACGUGCUCAACCUCCAAUGCAUCCCACCACAUGAUGAUGCCUGAAGAGCCUUGGUUUUUUG [G51U G71U C79G] | -2.26
17 | GACCAAUCUGCCCUCAGAGCUCGAGAACAUCUUCGGAUGCAGAGGAGGCACGCUUCGGUGGCGCGAUAGCGACAACGUCCUCAACCUCCAAUGCAUCCCACCACAUGAUGAUGCCUGAAGAGCCUUGGUUUUUUG [G51C C72A] | -3.1
18 | GACCAAUCUGCCCUCAGAGCUCGAGAACAUCUUCGGAUGCAGAGGAGGCAUGCUUCGGUGGCGCGAUAGCGCCAACCUCCUCAACCUCCACUGAAUCCCACCACAUGAUGAUGCCUGAAGAGCCUUGGUUUUUUG [G51U G77C A91C C94A] | -5.09
19 | GACCAAUCUGCCCUCAGAGCUCGAGAACAUCUUCGGAUGCAGAGGAGGCAUGCUUCGGUGGCGCGAUAGCCCCAACGUCCUCAACCUCCAAUGCAUCCCACCACAUGAGGAUGCCUUAAGAGCGUUGGUUUUUUG [G51U G71C U109G G117U C124G] | -7.73
20 | GACCAAUCUGCCCUCAGAGCUCGAGAACAUCUUCGGAUGCAGAGGAGGCAUGCUUCAGUGGCGCGAUAGCGCCAAAGUCCUCAACCUCCAAUGCAUCCCACCACAUGAUUAUGCCUGAAGAUCCUUGGUUUUUUG [G51U G57A C76A G110U G122U] | -5.8
21 | GACCAAUCUGCCCUCAGAGCUCGAGAACAUCUUCGGAUGCAGAGGAGGCAUACUUCGGUGGCGCGAUAGCGCCAACGUCCUCAACCUCCAAUGCAUCCCACCACAUGAUGAUGCCUGAAGAGCCUUGGUUUUUUG [G51U G52A] | -4.95
